Results taken from patent US20100160220A1.

How the values were obtained:
PTH1R-YFP2 = PTH1R-YFP2 (UniProt Q03431); assay: YFP protein-fragment complementation assay with PTH1R-YFP2 in living cells
[1] = molecular target: PTH1R tagged with HA (human) (UniProt Q03431); assay: PTH ligand incubated with transfected cells for 15 seconds, plasma membrane isolated, bound ligand by Western blot
PTH1R tagged with HA (human), sequence (Q03431 27-593): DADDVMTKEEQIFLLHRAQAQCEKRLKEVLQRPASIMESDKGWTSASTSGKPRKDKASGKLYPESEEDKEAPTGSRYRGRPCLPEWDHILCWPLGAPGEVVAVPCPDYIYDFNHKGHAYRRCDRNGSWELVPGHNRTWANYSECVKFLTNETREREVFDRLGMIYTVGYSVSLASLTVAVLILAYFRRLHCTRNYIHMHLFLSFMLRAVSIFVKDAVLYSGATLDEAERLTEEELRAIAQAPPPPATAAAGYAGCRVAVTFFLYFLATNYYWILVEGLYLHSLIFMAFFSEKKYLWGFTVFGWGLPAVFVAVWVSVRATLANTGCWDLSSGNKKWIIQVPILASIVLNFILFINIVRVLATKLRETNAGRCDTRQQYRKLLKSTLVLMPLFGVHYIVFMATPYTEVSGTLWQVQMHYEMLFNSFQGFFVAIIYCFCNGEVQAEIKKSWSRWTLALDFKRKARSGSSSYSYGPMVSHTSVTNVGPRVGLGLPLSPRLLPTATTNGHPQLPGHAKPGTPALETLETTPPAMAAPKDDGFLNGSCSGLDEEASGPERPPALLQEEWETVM

PTH1R-YFP2, sequence (Q03431 27-593): as above

Substance	YFP fluorescence intensity relative to WT TβRII (fold of WT TβRII-YFP1) (PTH1R-YFP2)	reduction of binding of PTH ligands versus vector control (cells overexpressing WT TβRII) [1] [%]
kinase dead TβRII (K277A)-YFP1 (from UniProt P37173 23-567) (receptor)	0.167	–
PTH ligand (form not stated, Example 12) (from UniProt P01270 32-65)	–	50
